Assay results as given in US20190381086A1, “INHIBITION OF NEDDYLATION USING GLYCYL-tRNA SYNTHETASE INHIBITORS” (The Scripps Research Institute, priority 2015, published 2019).

Key:
[1] = target: Ubc12^N8: NEDD8-conjugated Ubc12 (C111S, stable ester linkage to His-SUMO-tagged NEDD8) (UniProt P61081); assay: biolayer interferometry, Ubc12^N8 immobilized
[2] = target: Ubc12^N8: NEDD8-conjugated Ubc12 (C111S, stable ester linkage to His-SUMO-tagged NEDD8) (UniProt P61081); assay: biolayer interferometry (Octet), 30 °C, Ubc12^N8 (100 nM) immobilized on sensor tips, GlyRS 0.25 µM; curve 'Blank' (no GlySA)
[3] = target: Ubc12^N8: NEDD8-conjugated Ubc12 (C111S, stable ester linkage to His-SUMO-tagged NEDD8) (UniProt P61081); assay: biolayer interferometry, Ubc12^N8 immobilized, full-length GlyRS 8.07-129 nM
[4] = target: Ubc12^N8: NEDD8-conjugated Ubc12 (C111S, stable ester linkage to His-SUMO-tagged NEDD8) (UniProt P61081); assay: biolayer interferometry (Octet), 30 °C, Ubc12^N8 (100 nM) immobilized on sensor tips, GlyRS 0.25 µM; in the presence of 1.0 mM of the small molecule GlySA
[5] = target: Ubc12^N8: NEDD8-conjugated Ubc12 (C111S, stable ester linkage to His-SUMO-tagged NEDD8) (UniProt P61081); assay: biolayer interferometry (Octet), 30 °C, Ubc12^N8 (100 nM) immobilized on sensor tips, GlyRS 0.25 µM; in the presence of 0.5 mM of the small molecule GlySA

Kd [1] [nM] | Kd [2] [nM] | Kd [3] [nM] | Kd [4] [nM] | Kd [5] [nM] | fold decrease of binding against wild type GlyRS [1] [fold] | Binder
4.32 | – | – | – | – | – | ΔInsertion 1 GlyRS (F147-F224 replaced by GSGSGG) (enzyme) MDGAGAEEVLAPLRLAVRQQGDLVRKLKEDKAPQVDVDKAVAELKARKRVLEAKELALQPKDDIVDRAKMEDTLKRRFFYDQAFAIYGGVSGLYDFGPVGCALKNNIIQTWRQHFIQEEQILEIDCTMLTPEPVLKTSGHVDKFADGSGSGGNLMFKTFIGPGGNMPGYLRPETAQGIFLNFKRLLEFNQGKLPFAAAQIGNSFRNEISPRSGLIRVREFTMAEIEHFVDPSEKDHPKFQNVADLHLYLYSAKAQVSGQSARKMRLGDAVEQGVINNTVLGYFIGRIYLYLTKVGISPDKLRFRQHMENEMAHYACDCWDAESKTSYGWIEIVGCADRSCYDLSCHARATKVPLVAEKPLKEPKTVNVVQFEPSKGAIGKAYKKDAKLVMEYLAICDECYITEMEMLLNEKGEFTIETEGKTFQLTKDMINVKRFQKTLYVEEVVPNVIEPSFGLGRIMYTVFEHTFHVREGDEQRTFFSFPAVVAPFKCSVLPLSQNQEFMPFVKELSEALTRHGVSHKVDDSSGSIGRRYARTDEIGVAFGVTIDFDTVNKTPHTATLRDRDSMRQIRAEISELPSIVQDLANGNITWADVEARYPLFEGQETGKKETIEE
– | 2.12 | 3.21 | 22.4 | 7.88 | – | full-length human GlyRS (enzyme) MDGAGAEEVLAPLRLAVRQQGDLVRKLKEDKAPQVDVDKAVAELKARKRVLEAKELALQPKDDIVDRAKMEDTLKRRFFYDQAFAIYGGVSGLYDFGPVGCALKNNIIQTWRQHFIQEEQILEIDCTMLTPEPVLKTSGHVDKFADFMVKDVKNGECFRADHLLKAHLQKLMSDKKCSVEKKSEMESVLAQLDNYGQQELADLFVNYNVKSPITGNDLSPPVSFNLMFKTFIGPGGNMPGYLRPETAQGIFLNFKRLLEFNQGKLPFAAAQIGNSFRNEISPRSGLIRVREFTMAEIEHFVDPSEKDHPKFQNVADLHLYLYSAKAQVSGQSARKMRLGDAVEQGVINNTVLGYFIGRIYLYLTKVGISPDKLRFRQHMENEMAHYACDCWDAESKTSYGWIEIVGCADRSCYDLSCHARATKVPLVAEKPLKEPKTVNVVQFEPSKGAIGKAYKKDAKLVMEYLAICDECYITEMEMLLNEKGEFTIETEGKTFQLTKDMINVKRFQKTLYVEEVVPNVIEPSFGLGRIMYTVFEHTFHVREGDEQRTFFSFPAVVAPFKCSVLPLSQNQEFMPFVKELSEALTRHGVSHKVDDSSGSIGRRYARTDEIGVAFGVTIDFDTVNKTPHTATLRDRDSMRQIRAEISELPSIVQDLANGNITWADVEARYPLFEGQETGKKETIEE
27 | – | – | – | – | 9 | ΔF84-L93 GlyRS (F84-L93 replaced by GGG) (enzyme) MDGAGAEEVLAPLRLAVRQQGDLVRKLKEDKAPQVDVDKAVAELKARKRVLEAKELALQPKDDIVDRAKMEDTLKRRFFYDQAGGGYDFGPVGCALKNNIIQTWRQHFIQEEQILEIDCTMLTPEPVLKTSGHVDKFADFMVKDVKNGECFRADHLLKAHLQKLMSDKKCSVEKKSEMESVLAQLDNYGQQELADLFVNYNVKSPITGNDLSPPVSFNLMFKTFIGPGGNMPGYLRPETAQGIFLNFKRLLEFNQGKLPFAAAQIGNSFRNEISPRSGLIRVREFTMAEIEHFVDPSEKDHPKFQNVADLHLYLYSAKAQVSGQSARKMRLGDAVEQGVINNTVLGYFIGRIYLYLTKVGISPDKLRFRQHMENEMAHYACDCWDAESKTSYGWIEIVGCADRSCYDLSCHARATKVPLVAEKPLKEPKTVNVVQFEPSKGAIGKAYKKDAKLVMEYLAICDECYITEMEMLLNEKGEFTIETEGKTFQLTKDMINVKRFQKTLYVEEVVPNVIEPSFGLGRIMYTVFEHTFHVREGDEQRTFFSFPAVVAPFKCSVLPLSQNQEFMPFVKELSEALTRHGVSHKVDDSSGSIGRRYARTDEIGVAFGVTIDFDTVNKTPHTATLRDRDSMRQIRAEISELPSIVQDLANGNITWADVEARYPLFEGQETGKKETIEE
